We go through two molecules from patent US20020164690A1.

The target of one test is T1, gp130 on PC12D cells (UniProt P40190).
T1 sequence (looked up): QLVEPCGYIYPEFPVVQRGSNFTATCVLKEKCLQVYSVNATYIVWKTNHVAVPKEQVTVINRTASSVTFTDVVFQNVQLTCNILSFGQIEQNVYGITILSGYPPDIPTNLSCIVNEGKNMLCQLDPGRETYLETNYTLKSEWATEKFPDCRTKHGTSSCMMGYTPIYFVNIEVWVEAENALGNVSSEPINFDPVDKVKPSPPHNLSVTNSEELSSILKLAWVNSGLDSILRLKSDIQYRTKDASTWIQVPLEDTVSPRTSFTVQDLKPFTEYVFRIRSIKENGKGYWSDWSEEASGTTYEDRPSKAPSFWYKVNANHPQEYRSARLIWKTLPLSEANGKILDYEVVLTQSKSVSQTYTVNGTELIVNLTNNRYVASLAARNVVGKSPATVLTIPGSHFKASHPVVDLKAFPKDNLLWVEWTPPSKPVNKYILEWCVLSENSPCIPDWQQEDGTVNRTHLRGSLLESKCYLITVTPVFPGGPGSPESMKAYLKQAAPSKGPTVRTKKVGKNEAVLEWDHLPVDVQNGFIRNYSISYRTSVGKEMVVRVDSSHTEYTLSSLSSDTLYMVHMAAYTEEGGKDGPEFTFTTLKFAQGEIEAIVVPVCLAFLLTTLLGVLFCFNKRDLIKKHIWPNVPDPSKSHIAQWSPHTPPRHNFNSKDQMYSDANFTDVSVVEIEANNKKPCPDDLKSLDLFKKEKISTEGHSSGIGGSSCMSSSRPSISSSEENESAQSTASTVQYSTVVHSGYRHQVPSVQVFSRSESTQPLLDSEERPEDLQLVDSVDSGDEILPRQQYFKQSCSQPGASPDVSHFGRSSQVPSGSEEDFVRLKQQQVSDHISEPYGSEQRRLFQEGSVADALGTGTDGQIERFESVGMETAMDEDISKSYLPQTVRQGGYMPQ
Kind of test: cell-based or functional assay.

Test [1] deals with recombinant human IL-6 (human) (UniProt P05231). Kind of test: cell-based or functional assay.
Chain of recombinant human IL-6 (human) (P05231 30-212 limits assumed): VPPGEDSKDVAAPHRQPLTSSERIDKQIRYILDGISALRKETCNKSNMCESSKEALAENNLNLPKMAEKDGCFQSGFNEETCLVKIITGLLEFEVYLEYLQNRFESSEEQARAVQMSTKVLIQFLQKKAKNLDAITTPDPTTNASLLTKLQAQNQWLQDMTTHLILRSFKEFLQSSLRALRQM
A further test addresses human 125I-IL6 (human) (UniProt P05231). Briefly: dissociation: 20 pM 125I-IL-6 preincubated with 500 pM antibody for 20 hours, chased with 20 nM cold IL-6, precipitation with Protein G-Sepharose.

Chain of human 125I-IL6 (human) (P05231 30-212 limits assumed): as above

B1: Rat CNTF (ligand, UniProt P20294 1-200, looked up)
chain: MAFAEQTPLTLHRRDLCSRSIWLARKIRSDLTALMESYVKHQGLNKNINLDSVDGVPVASTDRWSEMTEAERLQENLQAYRTFQGMLTKLLEDQRVHFTPTEGDFHQAIHTLMLQVSAFAYQLEELMVLLEQKIPENEADGMPATVGDGGLFEKKLWGLKVLQELSQWTVRSIHDLRVISSHQMGISALESHYGAKDKQM
In the test with gp130 on PC12D cells, B1 came in with a tyrosine phosphorylation of gp130 in PC12D cells in response to IL-6 of 2 nM; a tyrosine phosphorylation of gp130 in PC12D cells in response to IL-6 and sIL-6Rα of 8 nM.

B2: anti-IL-6 monoclonal neutralizing antibody B-E8 (antibody, from another filing, V domains shown)
VH: QVTLKESGPGILKPSQTLSLTCSFSGFSLSTSGMGVGWIRQPSGKGLEWLAHIWWDDDKYYNPSLKSQLTISKDTSRNQVFLKITSVDTADTATYYCARSYDDYLYYALDYWGQGTSVTVSS
VL: DIVMTQSPATLSVTPGDRVSLSCRASQSISDYLHWYQQKSHESPRLLIKSVSQSISGIPSRFSGSGSGSDFTLSINSVEPEDVGVYYCQNGHSFPLTFGAGTKLELK
B2: in test [1], the IL-6-dependent proliferation of XG-1 cells (50 pg/ml IL-6): molar excess that blocks completely (fold molar excess over IL-6) was determined as 10. Further, the percent of the counts still associated after three days with human 125I-IL6 (human) was below 5%.
